The test has as its target hTERT (human telomerase reverse transcriptase) (human) (UniProt O14746). Put plainly: cell-based or functional assay.

Sequence of hTERT (human telomerase reverse transcriptase) (human) (O14746 whole entry): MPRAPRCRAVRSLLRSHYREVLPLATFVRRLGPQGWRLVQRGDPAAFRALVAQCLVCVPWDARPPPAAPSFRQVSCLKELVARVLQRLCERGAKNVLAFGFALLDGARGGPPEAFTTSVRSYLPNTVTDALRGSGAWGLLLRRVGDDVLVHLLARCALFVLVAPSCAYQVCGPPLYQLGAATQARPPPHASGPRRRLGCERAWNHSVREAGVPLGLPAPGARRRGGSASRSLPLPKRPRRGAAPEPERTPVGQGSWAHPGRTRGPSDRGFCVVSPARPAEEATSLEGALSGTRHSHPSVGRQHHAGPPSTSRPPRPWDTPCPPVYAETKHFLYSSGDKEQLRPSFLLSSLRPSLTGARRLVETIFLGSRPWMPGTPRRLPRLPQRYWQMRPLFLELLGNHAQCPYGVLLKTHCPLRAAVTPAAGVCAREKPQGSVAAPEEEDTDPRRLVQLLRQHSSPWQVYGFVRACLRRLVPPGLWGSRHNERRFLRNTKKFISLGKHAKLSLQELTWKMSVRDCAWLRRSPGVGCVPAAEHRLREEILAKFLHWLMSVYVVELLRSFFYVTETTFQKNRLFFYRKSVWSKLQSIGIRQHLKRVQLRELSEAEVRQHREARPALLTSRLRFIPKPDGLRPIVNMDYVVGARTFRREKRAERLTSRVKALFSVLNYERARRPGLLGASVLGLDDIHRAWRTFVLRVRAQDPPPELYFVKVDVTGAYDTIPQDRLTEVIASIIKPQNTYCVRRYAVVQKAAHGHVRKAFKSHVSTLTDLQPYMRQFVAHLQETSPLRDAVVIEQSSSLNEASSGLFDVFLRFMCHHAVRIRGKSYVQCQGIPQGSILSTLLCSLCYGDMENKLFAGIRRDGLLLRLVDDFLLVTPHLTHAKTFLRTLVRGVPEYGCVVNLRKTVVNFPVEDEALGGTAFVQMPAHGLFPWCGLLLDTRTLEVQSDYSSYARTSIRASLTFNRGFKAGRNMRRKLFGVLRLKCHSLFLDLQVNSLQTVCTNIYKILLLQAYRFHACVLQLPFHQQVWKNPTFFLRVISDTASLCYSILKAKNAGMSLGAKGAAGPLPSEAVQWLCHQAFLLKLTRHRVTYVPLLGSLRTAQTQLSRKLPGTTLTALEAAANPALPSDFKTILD

As for “LRP102-295::FLAG fragment (from UniProt P14206 102-295) (receptor)”, the relative telomerase activity (TRAPEZE kit, real time PCR) in transfected MRC 5 cells against non-transfected cells came to 83.4 % elevation.

The record behind these values is patent US20180325997A1.
